For orientation: Kd means a measure of binding affinity in units of concentration. Low values mean a tighter complex, high ones a looser complex. For orientation: koff means the first-order rate constant of dissociation. A higher koff goes with fast dissociation. A word on the kon: it is the rate constant with which the complex forms. Low values mean slow association, high ones fast association.

The source of these data is patent EP4725966A1 (SHANGHAI RUOTUO BIOSCIENCES CO., LTD., dated 2024).

To fix the notation:
B1: hHE4-G1W (antibody, human IgG1, V domains shown)
VH: QVQLVESGGGLVKPGGSLRLSCAASGFTFSSYVMSWVRQAPGKGLEWVATISDGDSSTYYADSVKGRFTISRDNAKNSLYLQMNSLRAEDTAVYYCARDKGHGYDEGAFVYWGQGTLVTVSS
VL: DIQMTQSPSSLSASVGDRVTITCRASENIYSYLAWYQQKPGKAPKLLIYNAKTLAEGVPSRFSGSGSGTDFTLTISSLQPEDFATYYCQNHYGTPYTFGQGTKLEIKR
notes: Humanized from cHE4-G1W; also called humanized HE4 antibody; not shown: human IgG1 heavy chain constant region; human light chain constant region
B2: hHE4-G1W-DXd (antibody, V domains shown)
VH: B1 VH
VL: B1 VL
modifications: maleimide-GGFG-DXd conjugated to cysteines of reduced interchain disulfide bonds; antibody-to-DXd ratio 1:8
notes: not shown: human IgG1 heavy chain constant region; human light chain constant region
B3: cHE1-G1W (antibody, human IgG1, V domains shown)
VH: EVKLQESGPGLVKPSQSLSLTCSVTGYSITSGYYWNWIRQFPGNKLEWMGYISYDGSNNYNPSLKNRISITRDTSKNQFFLNLNSVTTEDTATYYCARVDWDGDAMDYWGQGTSVTVSS
VL: DIVLTQSPASLAVSLGQRATISCRASESVDNYGIRLMHWYQQKSGQPPKLLIHRASNLESGIPARFSGSGSRTDFTLTINPVETDDVATYYCQQSNKDPFTFGSGTKLEIKR
notes: also called chimeric HE1 antibody; not shown: human IgG1 heavy chain constant region, GenBank AXN93653.1; human kappa light chain constant region, GenBank AWK57456.1
B4: cHE5-G1W (antibody, human IgG1, V domains shown)
VH: B3 VH with K3Q, N82K, R98S, V99Y, W101Y, A105W, M106F, D107A, S114L, S119A
VL: B3 VL with N31H, I34S, R35S, L36F, S44P, H53Y, L58P, F100P, S104G
notes: also called chimeric HE5 antibody; not shown: human IgG1 heavy chain constant region, GenBank AXN93653.1; human kappa light chain constant region, GenBank AWK57456.1
B5: cHE2-G1W (antibody, human IgG1, V domains shown)
VH: B3 VH with N82K, V99M
VL: B3 VL with R35S, S44P, H53Y, F100P, S104A, I110L
notes: also called chimeric HE2 antibody; not shown: human IgG1 heavy chain constant region, GenBank AXN93653.1; human kappa light chain constant region, GenBank AWK57456.1
B6: cHE4-G1W (antibody, human IgG1, V domains shown)
VH: EVQLVESGGGLVKPGGSLKLSCAASGFTFSSYVMSWVRQTPEKRLEWVATISDGDSSTYYPDNVKGRFTISRDNAKNNLFLQMSHLKSEDTAMYFCARDKGHGYDEGAFVYWGQGTLVTVSA
VL: DIQMTQSPASLSASVEETVTITCRASENIYSYLAWYQQKQGKSPQLLVYNAKTLAEGVPSRFSGSGSGTEFSLKINSLQPEDFGSYYCQNHYGTPYTFGGGTKLEIKQ
notes: also called chimeric HE4 antibody; cHE4-G1W4; not shown: human IgG1 heavy chain constant region, GenBank AXN93653.1; human kappa light chain constant region, GenBank AWK57456.1
B7: patritumab (antibody, V domains shown)
VH: QVQLQQWGAGLLKPSETLSLTCAVYGGSFSGYYWSWIRQPPGKGLEWIGEINHSGSTNYNPSLKSRVTISVETSKNQFSLKLSSVTAADTAVYYCARDKWTWYFDLWGRGTLVTVSS
VL: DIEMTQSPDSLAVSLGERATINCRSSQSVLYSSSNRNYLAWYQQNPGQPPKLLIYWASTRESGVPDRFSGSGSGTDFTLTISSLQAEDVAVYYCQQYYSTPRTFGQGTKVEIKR
B8: cHE6-G1W (antibody, human IgG1, V domains shown)
VH: EVQLQQSGPDLVKPGTSVKMSCKASGYTFTDYYMHWVRQSHGKSLEWIGYINPNNGDAIYNQKFKGKATLTVNKSSTTAYMALRSLTSEDSAVYFCATYDYGGDFYFDVWGTGTTVTVSS
VL: DIELTQSPALMSASPGEKVTMTCSASSSVSYMYWYQQKPRSSPKPWIYLTSNLASGVPARFSGSGSGTSYSLTISSMEAEDAATYYCQQWSRNPLTFGAGTKLELKR
notes: also called chimeric HE6 antibody; not shown: human IgG1 heavy chain constant region, GenBank AXN93653.1; human kappa light chain constant region, GenBank AWK57456.1
B9: cHE7-G1W (antibody, human IgG1, V domains shown)
VH: B8 VH with N73D
VL: B8 VL
notes: also called chimeric HE7 antibody; not shown: human IgG1 heavy chain constant region, GenBank AXN93653.1; human kappa light chain constant region, GenBank AWK57456.1

Substitutions are numbered along the chain they refer to. Names and notes keep the numbering of the source.

T6 sequence (G7PIG5 entry or part of it): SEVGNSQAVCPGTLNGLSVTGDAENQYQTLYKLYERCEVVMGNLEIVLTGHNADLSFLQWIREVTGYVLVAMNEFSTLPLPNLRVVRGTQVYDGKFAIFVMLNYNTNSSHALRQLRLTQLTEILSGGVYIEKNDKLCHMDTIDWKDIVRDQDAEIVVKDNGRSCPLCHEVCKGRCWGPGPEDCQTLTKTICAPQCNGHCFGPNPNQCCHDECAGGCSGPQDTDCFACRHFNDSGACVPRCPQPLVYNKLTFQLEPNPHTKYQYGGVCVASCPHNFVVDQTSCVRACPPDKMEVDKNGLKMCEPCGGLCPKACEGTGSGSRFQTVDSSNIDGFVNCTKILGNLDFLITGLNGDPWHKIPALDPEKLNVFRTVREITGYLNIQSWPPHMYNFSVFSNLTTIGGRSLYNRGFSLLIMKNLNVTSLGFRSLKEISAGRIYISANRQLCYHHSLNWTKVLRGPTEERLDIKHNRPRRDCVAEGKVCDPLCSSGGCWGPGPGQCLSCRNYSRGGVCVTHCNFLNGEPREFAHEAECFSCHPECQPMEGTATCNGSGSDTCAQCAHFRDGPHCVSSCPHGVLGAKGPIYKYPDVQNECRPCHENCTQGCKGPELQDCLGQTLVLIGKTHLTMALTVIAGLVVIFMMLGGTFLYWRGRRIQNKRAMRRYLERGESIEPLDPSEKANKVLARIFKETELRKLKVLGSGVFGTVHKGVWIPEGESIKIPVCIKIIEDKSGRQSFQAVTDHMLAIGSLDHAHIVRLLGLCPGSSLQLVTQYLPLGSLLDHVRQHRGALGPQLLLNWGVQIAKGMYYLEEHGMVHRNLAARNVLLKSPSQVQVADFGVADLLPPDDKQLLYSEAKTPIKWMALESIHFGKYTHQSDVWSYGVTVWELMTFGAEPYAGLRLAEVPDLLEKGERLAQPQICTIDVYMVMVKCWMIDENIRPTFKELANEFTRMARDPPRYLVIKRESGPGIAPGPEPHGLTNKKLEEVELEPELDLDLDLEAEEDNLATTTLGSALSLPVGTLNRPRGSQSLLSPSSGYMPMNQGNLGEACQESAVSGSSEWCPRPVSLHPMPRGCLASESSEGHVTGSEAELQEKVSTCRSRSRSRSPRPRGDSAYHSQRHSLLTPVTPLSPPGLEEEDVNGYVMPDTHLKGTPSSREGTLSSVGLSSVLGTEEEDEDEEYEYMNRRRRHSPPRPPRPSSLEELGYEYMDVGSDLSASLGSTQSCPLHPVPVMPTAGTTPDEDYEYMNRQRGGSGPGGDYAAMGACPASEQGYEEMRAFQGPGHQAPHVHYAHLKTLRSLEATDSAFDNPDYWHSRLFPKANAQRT

The target of the first test is T1, Human HER2-ECD-His (human, UniProt P04626 23-652).
T1 construct: extracellular domain; not shown: His tag
Put plainly: ELISA on coated Human HER2-ECD-His, antibody 25 nM to 0.011 nM. A general note: In an ELISA, binding on a coated surface is turned into a signal by an enzyme label.
B1: the binding result is recorded as “no binding (tested: 25 nM)”.

The target of another test is T2, human HER3 on cells (human, UniProt P21860 20-1342).
T2 construct: whole, on cells; also called Human HER3-CHO; CHO cells overexpressing human HER3
Put plainly: fluorescence imaging of HER3-overexpressing A375 cells, 100 nM, 0 hour.
Regarding B2, the binding result was “binds”.

The next test deals with T3, cynomolgus HER3-ECD-His (cynomolgus monkey, UniProt G7PIG5 20-643).
T3 construct: extracellular domain; Bought protein (Sino Biological); also called Cyno HER3-ECD-His; Cyno HER3; not shown: His tag
T3 sequence (G7PIG5 entry or part of it): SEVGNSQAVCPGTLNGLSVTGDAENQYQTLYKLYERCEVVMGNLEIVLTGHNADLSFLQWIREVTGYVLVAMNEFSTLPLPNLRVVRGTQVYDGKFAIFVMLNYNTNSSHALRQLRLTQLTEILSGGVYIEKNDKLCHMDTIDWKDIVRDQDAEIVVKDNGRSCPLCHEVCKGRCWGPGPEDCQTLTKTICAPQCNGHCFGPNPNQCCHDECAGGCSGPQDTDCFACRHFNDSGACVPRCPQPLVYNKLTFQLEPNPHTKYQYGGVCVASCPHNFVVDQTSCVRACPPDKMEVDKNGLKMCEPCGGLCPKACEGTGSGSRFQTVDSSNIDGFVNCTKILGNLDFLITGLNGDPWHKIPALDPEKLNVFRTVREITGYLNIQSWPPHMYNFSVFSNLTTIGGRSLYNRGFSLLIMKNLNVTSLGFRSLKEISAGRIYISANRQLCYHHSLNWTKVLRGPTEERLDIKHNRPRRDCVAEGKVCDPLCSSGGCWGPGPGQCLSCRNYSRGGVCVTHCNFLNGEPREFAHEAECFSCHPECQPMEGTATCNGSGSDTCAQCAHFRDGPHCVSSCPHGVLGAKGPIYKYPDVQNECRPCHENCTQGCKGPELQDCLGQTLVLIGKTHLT
Kind of test: Octet (BLI). (Biolayer interferometry detects binding as a change in optical thickness at a sensor tip.)
B1: the “KD fold lower than patritumab” value is ~10 fold.

A further test addresses T4, human HER3-ECD-His (human, UniProt P21860 20-643).
T4 construct: extracellular domain; Fusion protein of the extracellular domain of human HER3 and a His tag; also called hHER3-ECD-His; human HER3 extracellular domain protein; not shown: His tag
Kind of test: Octet (BLI).
As for B1, the “KD fold lower than patritumab” value was ~10 fold.

For the next test, the target named is T3, cynomolgus HER3-ECD-His. Put plainly: Octet (BLI). This is another data set of the same source.
With B3, the Kd came out at 4.01 nM, the koff turned out to be 0.0017 s⁻¹ and the association rate constant (kon) was 423000 M⁻¹ s⁻¹.
On the same counts, the results for B4 are 3.58 nM, 0.00154 s⁻¹ and 429000 M⁻¹ s⁻¹.
As for B5, the Kd was 3.25 nM, the koff came out at 0.00165 s⁻¹ and the kon is 507000 M⁻¹ s⁻¹.
In turn, B6 registered a Kd of 0.31 nM, a dissociation rate constant (koff) of 0.000116 s⁻¹ and a kon of 374000 M⁻¹ s⁻¹.
Regarding B7, the affinity, expressed as Kd, was 2.34 nM; the koff is 0.000306 s⁻¹; the kon was determined as 131000 M⁻¹ s⁻¹.
For B8, in that order: 1.25 nM, 0.000706 s⁻¹ and 565000 M⁻¹ s⁻¹.
For B9, in that order: 1.36 nM, 0.000912 s⁻¹ and 672000 M⁻¹ s⁻¹.

The next test deals with T4, human HER3-ECD-His. Kind of test: Octet (BLI). This is another data set of the same source.
As to B3, binding was put at a Kd of 4.88 nM, the off-rate constant (koff) amounted to 0.00356 s⁻¹ and the kon was found to be 728000 M⁻¹ s⁻¹.
For B4, in that order: 3.56 nM, 0.00253 s⁻¹ and 710000 M⁻¹ s⁻¹.
For B5, in that order: 3.57 nM, 0.00308 s⁻¹ and 861000 M⁻¹ s⁻¹.
On the same counts, the results for B6 are 0.409 nM, 0.000234 s⁻¹ and 573000 M⁻¹ s⁻¹.
Regarding B7, the Kd turned out to be 0.869 nM, the koff came out at 0.000224 s⁻¹ and the kon was found to be 258000 M⁻¹ s⁻¹.
For B8, in that order: 0.00114 nM, 5.11e-07 s⁻¹ and 450000 M⁻¹ s⁻¹.
For B9, in that order: 0.00131 nM, 5.57e-07 s⁻¹ and 425000 M⁻¹ s⁻¹.

The target of a further test is T5, Human HER4-ECD-His (human, UniProt Q15303 26-651).
T5 construct: extracellular domain; not shown: His tag
T5 sequence (looked up): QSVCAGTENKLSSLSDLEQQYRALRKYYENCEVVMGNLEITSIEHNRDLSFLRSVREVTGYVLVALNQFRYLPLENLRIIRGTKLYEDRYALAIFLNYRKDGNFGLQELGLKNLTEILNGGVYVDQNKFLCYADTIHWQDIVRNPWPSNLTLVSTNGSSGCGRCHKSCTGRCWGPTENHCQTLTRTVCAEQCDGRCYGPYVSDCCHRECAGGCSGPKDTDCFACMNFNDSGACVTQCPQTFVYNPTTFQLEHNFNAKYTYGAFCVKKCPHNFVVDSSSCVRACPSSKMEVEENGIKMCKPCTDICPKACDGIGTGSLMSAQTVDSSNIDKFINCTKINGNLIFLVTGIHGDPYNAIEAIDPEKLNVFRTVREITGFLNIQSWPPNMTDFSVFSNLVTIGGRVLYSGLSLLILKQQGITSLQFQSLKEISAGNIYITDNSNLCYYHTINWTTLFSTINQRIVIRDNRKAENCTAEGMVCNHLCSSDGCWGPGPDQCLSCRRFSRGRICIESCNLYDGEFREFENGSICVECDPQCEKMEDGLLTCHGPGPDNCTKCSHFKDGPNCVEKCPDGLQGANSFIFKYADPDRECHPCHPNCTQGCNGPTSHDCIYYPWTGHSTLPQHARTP
Kind of test: ELISA on coated Human HER4-ECD-His, antibody 25 nM to 0.011 nM.
Turning to B1, the binding result is on record as “no binding (tested: 25 nM)”.

Another test has as its target T3, cynomolgus HER3-ECD-His. Put plainly: Octet (BLI). This is another data set of the same source.
Molecule B6 gave a dissociation constant (Kd) of 0.227 nM, an off-rate (koff) of 9.63e-05 s⁻¹ and a kon of 425000 M⁻¹ s⁻¹.
For B7, in that order: 1.92 nM, 0.000371 s⁻¹ and 194000 M⁻¹ s⁻¹.
For B1, in that order: 0.208 nM, 9.11e-05 s⁻¹ and 439000 M⁻¹ s⁻¹.

The target of the next test is T4, human HER3-ECD-His. Kind of test: Octet (BLI). This is another data set of the same source.
On to B6, for which the Kd was found to be 0.233 nM, the koff came to 0.000112 s⁻¹ and the kon is 482000 M⁻¹ s⁻¹.
B7 yielded a Kd of 1.33 nM, a koff of 0.000296 s⁻¹ and a kon of 222000 M⁻¹ s⁻¹.
On the same counts, the results for B1 are 0.199 nM, 9.84e-05 s⁻¹ and 495000 M⁻¹ s⁻¹.

Another test concerns the target T6, cynomolgus HER3 on CHO cells (cynomolgus monkey, UniProt G7PIG5 20-1342).
T6 construct: whole, on cells; also called CHO cells overexpressing cynomolgus HER3; CHO cells overexpressing cynomolgus monkey HER3
Kind of test: FACS on CHO cells overexpressing cynomolgus HER3.
In the case of B6, the “EC50 fold against patritumab” value is 2 fold.

In the next test the target is T7, Human EGFR-ECD-His (human, UniProt P00533 25-645).
T7 construct: extracellular domain; not shown: His tag
Kind of test: ELISA on coated Human EGFR-ECD-His, antibody 25 nM to 0.011 nM.
For the molecule B1, the binding result is “no binding (tested: 25 nM)”.
